The source of these data is US11419945B2, “Antigen binding proteins” (Glaxo Group Limited, priority 2011, dated 2022).

One test has as its system Cyno in house BCMA. Put plainly: BIAcore analysis J7 to J9 series, cyno in house BCMA. Type of test: binding. To be noted: 37° C. A general note: SPR reads the build-up and loss of mass on a sensor chip optically.
The next test relates to cyno BCMA-Fc. Put plainly: ELISA binding to recombinant cyno BCMA-Fc. To be noted: 5 ug/ml to 0.1 ug/ml antibody. On the procedure: Chimeric CA8 antibodies were tested for binding to human BCMA and cyno BCMA expressed as Fc fusions. Human BCMA-Fc and cyno BCMA-Fc were coated to ELISA plates and the plates were blocked using BSA to reduce non specific binding. CA8 chimeric antibodies were added in a concentration range from 5 ug/ml to 0.1 ug/ml to the human and cyno BCMA coated ELISA plates. Any bound human chimeric CA8 antibody was detected using anti-human IgG HRP conjugated secondary antibody as appropriate. HRP substrate (TMB) was added to develop the ELISA.
(An ELISA detects its analyte on a solid surface through an enzyme-linked reagent.)

Test [1] deals with ARH77 BCMA transfected target cells (10B5). The experiment in a line: ADCC of chimeric and defucosylated chimeric CA8 with NK cells. Type of test: cell-based. To be noted: human NK cells, E:T ratio 5:1, 2 hours. On the procedure:
Human natural killer (NK) cells were incubated with europium labelled ARH77 BCMA transfected target cells (10B5) in the presence of varying concentrations of antibody at an E:T ratio of 5:1 for 2 hours. Europium release from the target cells was measured and specific lysis calculated.

In the next test the test system is BCMA-Fc. The experiment in a line: Biacore cross reactivity experiment, BCMA-Fc. Type of test: binding. To be noted: antibody captured on protein A. On the procedure:
CA8 chimera antibody was injected and captured on protein A. (A protein A derivitised sensorchip was used). Residual protein A binding was blocked with an injection of a high concentration of human IgG solution. BCMA-Fc, TACI-Fc or BAFF-R-Fc solutions were then tested for binding to the antibody. The 3 proteins were injected in sequence and binding events were measured. The surface was regenerated between injection of each protein.
Sensorgrams were analysed in the Biaevaluation program. Double reference subtraction was done to remove instrument noise and any non-specific binding from the sensorgram curves.

Test [2] addresses T1, Human commercial BCMA (Homo sapiens, UniProt Q02223).
T1 construct: purchased US Biological B0410
T1 sequence (Q02223 1-184): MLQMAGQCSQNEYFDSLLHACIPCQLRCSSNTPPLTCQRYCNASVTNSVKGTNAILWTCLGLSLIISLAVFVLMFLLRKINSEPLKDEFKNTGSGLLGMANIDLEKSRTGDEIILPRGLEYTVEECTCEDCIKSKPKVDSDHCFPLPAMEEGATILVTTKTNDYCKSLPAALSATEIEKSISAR
The experiment in a line: BIAcore analysis J7 to J9 series, human commercial BCMA. It is filed as binding. To be noted: 37° C. The protocol: Protein A was immobilised on a CMS chip (GE Healthcare, Cat No: BR-1005-30) by primary amine coupling and this surface was then used to capture the antibody molecules. Recombinant human BCMA (US Biological, B0410) was used as analyte at 256 nM, 64 nM, 16 nM, 4 nM and 1 nM. Regeneration of the capture surface was carried out using 50 mM NaOH. All binding curves were double referenced with a buffer injection (i.e. 0 nM) and the data was fitted to the using the 1:1 model inherent to T100 evaluation software. The run was carried out at 37° C., using HBS-EP as the running buffer.

For a further test, the system named is cyno BCMA HEK293. Put plainly: FMAT binding assay, cyno BCMA expressing HEK293 cells. To be noted: range of antibody concentrations. The protocol:
Cryopreserved transfected human, cyno BCMA and mock transfected HEK293 cells were recovered from LN2 storage. Assay wells were prepared with human chimeric CA8 antibody, at a range of different concentrations, mixed with human BCMA HEK293, cyno BCMA HEK293 and mock transfected cells respectively. Anti-human IgG FMAT Blue secondary conjugate was added for detection of human chimeric CA8. The assay plates were left for a minimum of 90 minutes before the result was read on the ABI8200 (FMAT) plate reader.

Test [3] addresses T1, Human commercial BCMA. The experiment in a line: BIAcore analysis of J6M0 and J9M0, human commercial BCMA. Type of test: binding. On the procedure: Protein A was immobilised on a CMS chip (GE Healthcare, Cat No: BR-1005-30) by primary amine coupling and this surface was then used to capture the antibody molecules. Recombinant human BCMA (US Biological, B0410) was used as analyte at 256 nM, 64 nM, 16 nM, 4 nM and 1 nM. Regeneration of the capture surface was carried out using 50 mM NaOH. All binding curves were double referenced with a buffer injection (i.e. 0 nM) the data was fitted to the using the 1:1 model inherent to T100 evaluation software. The run was carried out at 25° C. and 37° C. for experiment 1 and only 37° C. for experiment 2 using HBS-EP as the running buffer.

The next test has as its target T2, Human in house BCMA (Homo sapiens, UniProt Q02223).
T2 construct: CD33 signal peptide (N); TEV site (internal); Fc (C); made in house
The experiment in a line: ProteOn analysis of CA8 chimeric and humanised constructs, human in house BCMA. It is filed as binding. To be noted: ProteOn, 25° C.; for ka: in M-1s-1 (unit assumed); for kd: in s-1 (unit assumed). The method in brief: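 SPR at 25 °C in HBS-EP: CA8 antibodies captured on Protein A-coated chip, recombinant BCMA injected at 256, 64, 16, 4, 1 nM with buffer double-referencing; NaOH regeneration. Kinetics from 1:1 model fit; run 2 also used commercial human BCMA.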

The next test deals with H929 cells. The experiment in a line: FACS binding of humanised CA8 to H929 cells. Details: species or system human. To be noted: varying concentrations, 20 minutes at RT. On the procedure: ARH77-hBCMA 10B5 BCMA expressing transfectant cells or H929 cells were stained with either chimeric CA8 or humanised variants of CA8 designated J6M0, J6M1, J6M2, J9M0, J9M1, J9M2 at varying concentrations for 20 minutes at RT. Cells were then washed with FACS buffer (PBS+0.5% BSA+0.1% sodium azide) to remove unbound antibody. Cells were incubated with a secondary PE labelled anti-human IgG antibody for 15 minutes at RT and then washed with FACS buffer to remove unbound antibody. Cells were analysed by FACS and mean fluorescence intensity (MFI) values measured to determine binding.
For orientation: A flow cytometer gives signals particle by particle.

T2 sequence (Q02223 with tags, fused parts or gaps limits assumed): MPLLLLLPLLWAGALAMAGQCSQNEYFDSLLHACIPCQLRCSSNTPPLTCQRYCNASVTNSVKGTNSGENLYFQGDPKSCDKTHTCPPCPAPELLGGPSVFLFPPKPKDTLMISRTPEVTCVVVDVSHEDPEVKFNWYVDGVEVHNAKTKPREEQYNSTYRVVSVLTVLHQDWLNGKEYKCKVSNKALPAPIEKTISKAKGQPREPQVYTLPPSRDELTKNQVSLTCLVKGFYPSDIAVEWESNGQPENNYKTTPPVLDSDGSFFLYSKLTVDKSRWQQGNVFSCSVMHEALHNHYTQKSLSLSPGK
cyno BCMA-Fc, sequence (as listed by the source): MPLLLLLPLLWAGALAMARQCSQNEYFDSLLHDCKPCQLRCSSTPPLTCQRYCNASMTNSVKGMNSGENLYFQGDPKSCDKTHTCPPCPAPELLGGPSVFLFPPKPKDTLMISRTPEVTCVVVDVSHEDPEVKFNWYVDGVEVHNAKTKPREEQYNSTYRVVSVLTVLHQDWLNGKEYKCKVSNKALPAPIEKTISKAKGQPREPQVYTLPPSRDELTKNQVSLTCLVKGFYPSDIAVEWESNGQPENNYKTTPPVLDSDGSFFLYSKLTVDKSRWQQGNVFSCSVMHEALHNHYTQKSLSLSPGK
cyno BCMA HEK293, sequence (as listed by the source): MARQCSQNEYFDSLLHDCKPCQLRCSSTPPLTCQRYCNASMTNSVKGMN

B1: CA8 Chimera: chimeric anti-BCMA antibody: murine CA8 VH (SEQ ID NO:7) and VL (SEQ ID NO:9) on human γ1 and kappa constant regions (antibody, V domains shown)
VH: EVQLQQSGAVLARPGASVKMSCKGSGYTFTNYWMHWVKQRPGQGLEWIGATYRGHSDTYYNQKFKGKAKLTAVTSTSTAYMELSSLTNEDSAVYYCTRGAIYNGYDVLDNWGQGTLVTVSS
VL: DIQLTQTTSSLSASLGDRVTISCSASQDISNYLNWYQQKPDGTVELVIYYTSNLHSGVPSRFSGSGSGTDYSLTIGYLEPEDVATYYCQQYRKLPWTFGGGSKLEIKR
modifications: human IgG1 and kappa constant regions; mus musculus
For B1, the ka with Cyno in house BCMA (in M-1s-1 (unit assumed)) was 1.15E+06; with Human commercial BCMA [2] (in M-1s-1 (unit assumed)) it was 3.27E+07; with Human commercial BCMA [3] (25° C., Experiment 1, in M-1s-1 (unit assumed)) it was 1.88E+06; in the test with Human commercial BCMA [3] (37° C., Experiment 1, in M-1s-1 (unit assumed)), 1.72E+07; in the test with Human commercial BCMA [3] (37° C., Experiment 2, in M-1s-1 (unit assumed)), 1.88E+07; with Human in house BCMA (Run 1, Human in house BCMA), 2.41E+05. The ka with Human in house BCMA (Run 2, Human in house BCMA) is given as 2.51E+05. Also, the kd at Cyno in house BCMA (in s-1 (unit assumed)) is 3.49E−04; in the test with Human commercial BCMA [2] (in s-1 (unit assumed)), 1.18E−03; in the test with Human commercial BCMA [3] (25° C., Experiment 1, in s-1 (unit assumed)), 2.63E−04; with Human commercial BCMA [3] (37° C., Experiment 1, in s-1 (unit assumed)) it was 8.72E−04; with Human commercial BCMA [3] (37° C., Experiment 2, in s-1 (unit assumed)) it was 1.04E−03; in the test with Human in house BCMA (Run 1, Human in house BCMA), 1.25E−04. In addition, the kd in the test with Human in house BCMA (Run 2, Human in house BCMA) amounted to 1.03E−04. In addition, the “binding to recombinant cyno BCMA (ELISA)” value was “binds to recombinant human and cyno BCMA” in the test with cyno BCMA-Fc (listed as Chimeric CA8); “bind to human and cyno BCMA proteins equally” with cyno BCMA-Fc (listed as human chimeric CA8 antibodies). In addition, the “ADCC activity (specific lysis, europium release)” value in test [1] is reported as “killed BCMA expressing target cells via ADCC”. Also, in the test with BCMA-Fc, the “binding to BCMA-Fc” value is given as “specific for binding to BCMA”. Moreover, the “binding to cyno BCMA expressed on HEK293 cells” value with cyno BCMA HEK293 is reported as “binds well”. The “dose dependent binding to H929 cells by FACS (MFI)” value in the test with H929 cells is “bound”.
